Results taken from US12233115B2, “Long-acting parathyroid hormone” (Extend Biosciences, Inc., priority 2022, dated 2025).
Read-outs that look alike come from different tables or passages of the source.

Assays:
DBP = molecular target: T1, DBP (Homo sapiens, UniProt P02774); settings: Norman et al. 2001, p. 51; cited from earlier work
T1 sequence (P02774 17-474): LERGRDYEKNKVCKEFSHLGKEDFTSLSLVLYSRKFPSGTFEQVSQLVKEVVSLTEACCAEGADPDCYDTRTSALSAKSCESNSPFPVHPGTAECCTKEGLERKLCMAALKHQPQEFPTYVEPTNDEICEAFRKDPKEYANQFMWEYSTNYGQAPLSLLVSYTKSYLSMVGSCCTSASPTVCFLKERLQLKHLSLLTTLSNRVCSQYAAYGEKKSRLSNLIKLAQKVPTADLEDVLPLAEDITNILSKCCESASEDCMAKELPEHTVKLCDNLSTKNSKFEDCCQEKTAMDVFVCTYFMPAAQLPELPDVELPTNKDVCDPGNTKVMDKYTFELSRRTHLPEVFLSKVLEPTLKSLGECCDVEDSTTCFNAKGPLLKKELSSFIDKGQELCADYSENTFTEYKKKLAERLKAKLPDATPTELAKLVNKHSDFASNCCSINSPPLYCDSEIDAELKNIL

VDRnuc = settings: Norman et al. 2001, p. 51; cited from earlier work
Solubility in PBS (A280) = assay type: physicochemical
Procedure: PEG Length and Counterion Affects Solubility: The solubility of the acetate and carbonate salt form of each compound was determined as follows. For EXT611, EXT606, and EXT608, phosphate buffered saline (PBS) was added to each compound to form a saturated solution. Undissolved compound was removed by centrifugation. The concentration of dissolved compound was determined by measuring the absorbance at 280 nm using an extinction coefficient of 18,600 M^−1 cm^−1. For EXT615, EXT616, and EXT617, solubility was limited practically by the high viscosity imparted by the large PEG moieties. Highly viscous drug formulations are difficult to manipulate and require large needle bore sizes that cause increased injection site pain. PBS was added to EXT615, EXT616, and EXT617 incrementally until a solution was obtained that could be successfully pipetted through a pipet tip with a bore of approximately 1 mm diameter (enlarged by removing the end with a razor blade). The concentration of dissolved compound was determined by measuring the absorbance at 280 nm using an extinction coefficient of 18,600 M^−1 cm^−1. […] For EXT608, the acetate salt was 17.6-fold more soluble than the carbonate salt.

[1] = human, in vivo, cited from earlier work

25-hydroxyvitamin D [25(OH)D3]
fold tighter binding to DBP than 1α,25(OH)2D3 (DBP): 668 fold

C=C1/C(=C\C=C2/CCC[C@]3(C)[C@@H]([C@H](C)CCCC(C)(C)O)CC[C@@H]23)C[C@@H](O)C[C@@H]1O [1α,25(OH)2D3, 1,25-dihydroxyvitamin D3]
fold tighter binding to VDRnuc than 25(OH)D3 (VDRnuc): 668 fold

C=C1CC[C@H](OCCCNC(=O)CCOCCOCCOCCOCCOCCOCCOCCOCCOCCOCCOCCOCCOCCOCCOCCOCCOCCOCCOCCOCCOCCOCCOCCOCCNC(=O)CCN2C(=O)CC(SC[C@H](NC(=O)[C@H](Cc3ccccc3)NC(=O)[C@H](CC(N)=O)NC(=O)[C@H](Cc3c[nH]cn3)NC(=O)[C@@H](NC(=O)[C@H](CC(=O)O)NC(=O)[C@H](CCC(N)=O)NC(=O)[C@H](CC(C)C)NC(=O)[C@H](CCCCN)NC(=O)[C@H](CCCCN)NC(=O)[C@H](CCCNC(=N)N)NC(=O)[C@H](CC(C)C)NC(=O)[C@H](Cc3c[nH]c4ccccc34)NC(=O)[C@H](CCC(=O)O)NC(=O)[C@@H](NC(=O)[C@H](CCCNC(=N)N)NC(=O)[C@H](CCC(=O)O)NC(=O)[C@H](CCSC)NC(=O)[C@H](CO)NC(=O)[C@H](CC(N)=O)NC(=O)[C@H](CC(C)C)NC(=O)[C@H](Cc3c[nH]cn3)NC(=O)[C@H](CCCCN)NC(=O)CNC(=O)[C@H](CC(C)C)NC(=O)[C@H](CC(N)=O)NC(=O)[C@H](Cc3c[nH]cn3)NC(=O)[C@H](CCSC)NC(=O)[C@H](CC(C)C)NC(=O)[C@H](CCC(N)=O)NC(=O)[C@@H](NC(=O)[C@H](CCC(=O)O)NC(=O)[C@H](CO)NC(=O)[C@@H](NC(=O)[C@@H](N)CO)C(C)C)[C@@H](C)CC)C(C)C)C(C)C)C(N)=O)C2=O)C/C1=C/C=C1\CCC[C@]2(C)[C@@H]([C@H](C)CCCC(C)(C)O)CC[C@@H]12 (some centres unmarked) [EXT606]
solubility (Solubility in PBS (A280); acetate salt, read-out: Solubility as Acetate): 907 µM
solubility (Solubility in PBS (A280); carbonate salt, read-out: Solubility as Carbonate): 200 µM

PTH: Parathyroid hormone, polypeptide containing 84 amino acids (SEQ ID NO:2); literature half-life values
plasma half-life ([1]; iv): less than 15 minutes
serum half-life ([1]; iv): approximately 5 minutes
apparent half-life ([1]; sc): 1.5 to 2.5 h
plasma half-life (estimated) ([1]; sc): 2 to 3 h
